In article PMC5737688:
Like-named read-outs stand apart in the source and are kept apart here.

Key:
[1] = molecular target: GAN·GINS complex of Thermococcus kodakarensis, formed on the SPR chip from the purified recombinant proteins (Thermococcus kodakarensis); assay: SPR
[2] = molecular target: GAN·GINS complex of Thermococcus kodakarensis, formed on the SPR chip from the purified recombinant proteins (Thermococcus kodakarensis); assay: SPR; remark: listed apart in the source

Substance: MCM3 (minichromosome maintenance helicase) of Thermococcus kodakarensis, homohexamer, recombinant (enzyme)
- Kd [1]: 180 nM
- Kd [2]: 190 nM
